According to patent publication US20070004636A1, “Method of degrading transcriptional factors of saccharometabolism-associated gene, method for inhibiting the degradation, and agent for inhibiting degradation and degradation inhibitor” (priority 2002, published 2007):

Key:
human HNF-4α = assay: in vitro protein degradation test of HNF-4α by calpain (Western blotting); format: biochemical; conditions: 1 hour at 37° C.
Procedure: Using the HNF-4α expression plasmid, in vitro synthesis of HNF-4α protein was conducted using the TNT T7 Quick Coupled Transcription/Translation System (Promega, Inc.). That is, the HNF-4α expression plasmid was mixed with TNT T7 Quick Master Mix, and then incubated for 1.5 hours at 30° C. in the presence of methionine to synthesize HNF-4α.
The in vitro protein degradation test was carried out by adding m-calpain extracted from rabbit muscle (Protease, Calcium-Activated Neutral (calpain), Sigma Chemical Co.) at a final concentration of 50 μg/mL to the synthesized HNF-4α, and then incubating for 1 hour at 37° C. in the presence of 200 mM Tris-HCl (pH 7.8)/1 mM dithiothreitol (DTT)/6 mM CaCl2. To conduct a degradation test in the absence of calcium, a test sample was prepared by adding 10 mM ethylenediaminetetraacetic acid (EDTA) instead of 6 mM CaCl2, and the sample was then incubated in a similar manner. The samples after incubation were added to an equal volume of 2× sodium dodecyl sulfate (SDS) sample buffer (4% SDS/125 mM Tris-HCl, pH 6.8/20% glycerol/0.01% bromphenol blue (BPB)/10% β-mercaptoethanol), heated for 5 minutes, and subjected to 10% SDS-PAGE for separation. Thereafter, Western blotting was carried out to detect HNF-4α using anti-HNF-4α antibody/HNF-4α (C-19) antibody (Santa Cruz Biotechnology, Inc.) and anti-Xpress antibody (Invitrogen, Inc.). An ECL Western blotting detection kit (Amersham pharmacia biotech) was used for the detection.
The final concentration of human m-calpain in the reaction system was 2.33 mg/mL as the protein concentration of the lysate of sf-9 cells that expressed human m-calpain. The final concentration of rat m-calpain in the reaction system was 59 units/mL. A degradation test was also conducted in the same manner without addition of calpain. Further, to test for degradation in the absence of calcium, a sample was prepared by adding 10 mM of EDTA instead of 6 mM CaCl2, and a degradation test was conducted with the sample in a similar manner. The samples after incubation were added to an equal volume of 2×SDS sample buffer, heated for 5 minutes, and subjected to 5-20% SDS-PAGE for separation. Thereafter, Western blotting was carried out to detect HNF-4α using anti-HNF-4α antibody/HNF-4α (C-19) antibody. An ECL Western blotting detection kit was used for the detection.
An in vitro protein degradation test was carried out by adding μ-calpain to HNF-4α at a final concentration of 50 units/mL, and incubating for 1 hour at 37° C. in the presence of 200 mM Tris-HCl (pH 7.8)/1 mM DTT/6 mM CaCl2. […]

human IPF-1 = assay: in vitro protein degradation test of IPF-1 by calpain (Western blotting); format: biochemical; conditions: 1 hour at 37° C.
Procedure: Using the IPF-1 expression plasmid, synthesis of IPF-1 protein was carried out in vitro using the TNT T7 Quick Coupled Transcription/Translation System. That is, the IPF-1 expression plasmid was mixed with TNT T7 Quick Master Mix, and then incubated for 1.5 hours at 30° C. in the presence of methionine to synthesize IPF-1.
Protein degradation tests were carried out in vitro by adding μ-calpain or m-calpain to IPF-1, and incubating for 1 hour at 37° C. in the presence of 200 mM Tris-HCl (pH 7.8)/1 mM DTT/6 mM CaCl2. The final concentrations of each calpain in the reaction systems were as follows: 50 units/mL of human μ-calpain; 50 μg/mL of rabbit m-calpain as a protein concentration, and 59 units/mL of rat m-calpain. For a control experiment, IPF-1 was incubated without addition of calpain in the same manner in the presence of calcium. Further, to test for protein degradation in the absence of calcium, a sample was prepared by adding 10 mM of EDTA instead of 6 mM of CaCl2, and incubated in the same manner. The samples after incubation were added to an equal volume of 2×SDS sample buffer, heated for 5 minutes, and subjected to 5-20% SDS-PAGE for separation. Thereafter, Western blotting was carried out to detect IPF-1 using anti-Xpress antibody and anti-IPF1 (PDX-1) antibody/N-18 (Santa Cruz Biotechnology, Inc.). The ECL Western blotting detection kit was used for conducting the detection.
In-vitro protein degradation tests were carried out in the same manner as Example 10, but the lysate of sf-9 cells that coexpressed m-calpain with calpain small subunit 1 was used as m-calpain. The final concentration of the lysate of sf-9 cells that expressed these proteins in the reaction system was 2.33 mg/mL as a protein concentration. The final concentration of rat m-calpain in the reaction system was 59 units/mL. Detection of IPF-1 was performed in the same manner as Example 10, but only anti-IPF-1 antibody/N-18 was used.

[1] = in the absence of calcium (10 mM EDTA instead of CaCl2)
[2] = in the presence of calcium (6 mM CaCl2), Western blotting

B1: human m-calpain: lysate of sf-9 insect cells coexpressing human m-calpain with calpain small subunit 1; FLAG-tagged, expressed in HEK293T cells, in Example 3 (protein, UniProt P17655 20-700; P04632 1-268, looked up)
Calpain-2 catalytic subunit: SHDRAIKYLNQDYEALRNECLEAGTLFQDPSFPAIPSALGFKELGPYSSKTRGIEWKRPTEICADPQFIIGGATRTDICQGALGDCWLLAAIASLTLNEEILARVVPLNQSFQENYAGIFHFQFWQYGEWVEVVVDDRLPTKDGELLFVHSAEGSEFWSALLEKAYAKINGCYEALSGGATTEGFEDFTGGIAEWYELKKPPPNLFKIIQKALQKGSLLGCSIDITSAADSEAITFQKLVKGHAYSVTGAEEVESNGSLQKLIRIRNPWGEVEWTGRWNDNCPSWNTIDPEERERLTRRHEDGEFWMSFSDFLRHYSRLEICNLTPDTLTSDTYKKWKLTKMDGNWRRGSTAGGCRNYPNTFWMNPQYLIKLEEEDEDEEDGESGCTFLVGLIQKHRRRQRKMGEDMHTIGFGIYEVPEELSGQTNIHLSKNFFLTNRARERSDTFINLREVLNRFKLPPGEYILVPSTFEPNKDGDFCIRVFSEKKADYQAVDDEIEANLEEFDISEDDIDDGFRRLFAQLAGEDAEISAFELQTILRRVLAKRQDIKSDGFSIETCKIMVDMLDSDGSGKLGLKEFYILWTKIQKYQKIYREIDVDRSGTMNSYEMRKALEEAGFKMPCQLHQVIVARFADDQLIIDFDNFVRCLVRLETLFKIFKQLDPENTGTIELDLISWLCFSVL
Calpain small subunit 1: MFLVNSFLKGGGGGGGGGGGLGGGLGNVLGGLISGAGGGGGGGGGGGGGGGGGGGGTAMRILGGVISAISEAAAQYNPEPPPPRTHYSNIEANESEEVRQFRRLFAQLAGDDMEVSATELMNILNKVVTRHPDLKTDGFGIDTCRSMVAVMDSDTTGKLGFEEFKYLWNNIKRWQAIYKQFDTDRSGTICSSELPGAFEAAGFHLNEHLYNMIIRRYSDESGNMDFDNFISCLVRLDAMFRAFKSLDKDGTGQIQVNIQEWLQLTMYS
modifications: FLAG tag
- degradation of HNF-4α (human HNF-4α; [1]): not observed
- degradation of HNF-4α (human HNF-4α; [2]): observed
- degradation of IPF-1 (human IPF-1; [1]): not observed
- degradation of IPF-1 (human IPF-1; [2]): observed
